The supplement of paper PMC9170038

test system: K4 kissing-loop RNA reporter; assay: apparent KD of K4 kissing-loop reporter; higher = weaker reporter binding; conditions: Eterna round: R107; input ligand: none
Protocol: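 RNA-MaP round R107: designed RNA switches with theophylline, tryptophan, arginine or FMN aptamers are transcribed on-chip within common flanks. They are titrated with a labelled K4 kissing-loop RNA reporter in RNA-MaP buffer (100 mM Tris pH 7.5, 80 mM KCl, 4 mM MgCl2), without ligand or with the indicated ligand. Median apparent KD per design.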
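Further: bound reporter read as fluorescence of individual clusters on recovered sequencing chips by microscopy, with normalized cluster intensities fitted with a binding model.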

Row | Sequence | apparent KD of K4 kissing-loop reporter
1 | UCUGAAGGUGGAGGAUAUUGAUUGAAUCUUGGUCAGGAGUGAUGUUCCGGGAAGCCUUGGAUUCAUCGAGAAGGCCAAGGAUAGU [#10 K4 FMN B Same State] | 0.243 µM
2 | UAAAUUAAGCUUUGCUGAUUAAUAAGCGAUACCAGCAAAUAAUGAUGCCCUUGGCAGCGUUAUAAUCUAGUGAUGUUAGAUUAGU [Not much to say about this one] | 0.101 µM
3 | UAUAAUUCGGCGGCCGCCACUGACCAUAGCCUUCGAUGGCCAGUGAUGUUGGCCUCUGGCUCUAACAGGACCGGGCCGAAUUGCG [Aririmaus] | 0.26 µM
4 | UCGAUGGCCAGCGAUACCAGCCCAGUGAUGUUGGGCACAUGGUUGCGGGAAAUCCCAUUGGGCCCUUGGCAGCGCUUGCAUGGGU [Dizaisa] | 0.14 µM
5 | AAAUUUAAUAUAUUUAAUUAAUUAUGUGAUACCAGACAUUUAUAAGUCCCUUGGCAGCACUUUGCAGUGAUGUUGCAUAUAAUAA [JR_SSTheophyA_Sub013] | 0.121 µM
6 | UGAUUUAACUGAAGGAGCGGCAAUUGAUAAGUAAAUAUAGUGAUGUUAUAUAAGAUAGAGAGCCAGGUAGGUCGCAGAGGGAGGA [ExArgB.J] | 0.159 µM
7 | CCAGGUUGCCGCAACGACCUGGAUUUUAGGGAGGAUAUCCAGAGCAGGAGAAGGCCCAGUGAUGUUGGGCCUGUGGAGCCCAUAU [Ararensoza] | 0.176 µM
8 | CUCGAGUGAUGUUCGAUUAUUUAUACAGAUACCAGUGAAUUUUAACACCCUUGGCAGCUGGUUGUAUCUUUGUUUUUUACACAAG [JR_ExcTheophyA_Sub006] | 0.118 µM
9 | UAAUCCUAGUGAUCCUUAUCAAGUGGUGGGCGAGGACCGGUACGGCCGCCACUCGAAUAUGCAGUGAUGUUGUAAUCCGGAUAAU [Exclusion - Tryptophan A (Freestyle 9)] | 0.919 µM
10 | UGUCAUUGGUCGGCCGCCACUAGGACCGGGUUUUACCUAGUGAUGUUAGUAUAAACGGCCGCCACUAGGACCGGGACCGAUGACU [KL-SSTryp-B24 #DoubleAptamer] | 0.547 µM
11 | AAUCAAUACAGAAGGAGCGUGACAAUUACUAUUGAUUCAGGAGCUAGUGAUGUUAGCAUUUCACAGGUAGGUCGCUGUACAUUUA [JR_SSArginiB_Sub013] | 0.201 µM
12 | GCCGUAGAUUGAAGGAGCGAGUAGGCUCACUUGCGAAGUGAAUAGCAGAGUGAUGUUCUGUCUCAGGUAGGUCGCAAUCUACGGC | 0.388 µM
13 | UAUUUGAUGUCAGGAUAUCGUAUACGAGUGAUGUUCGUAUUUCUACUAUAGAUUAUUUAAAUUUUUCGAGAAGGGACAACAUUUA [#04 K4 FMN B Same State] | 0.115 µM
14 | UAGUCAUACAGAGGAUAUCGUAUGAGUGAUGUUCAAGUGCGUACAUCAACUUGAUGUACAGAUAGACGAGAAGGCUGUAUGACUA [FMB B SS t6] | 0.487 µM
15 | AAGAGAUCGAGAAGGAGCGAGAAAGCUAGUACAUAUGUACUAGCAAAGCAGUGAUGUUGCACUCAGGUAGGUCGCUCGAUCUCAA [AK1 SS Arginine B] | 0.432 µM
16 | GGGCUAUAGUGAUGUUAUUGUCUAAACGAUACCAGUUCACCCGUGAACCCUUGGCAGCGUGGUGUAACCUAUCCUCGUUGCACUG [theeternabot_sameState_KL_Theo_A_28] | 0.744 µM
17 | GUCCACACUGCAGGAUAUGGAGGUAUAGCGAGGGAGUUUGGAAGCACACCUCUGGCAGUGAUGUUGCCAGAAGGGCGGUGCGGCG [Rauserin] | 0.0992 µM
18 | UGUAUGUGAUGUGAUACCAGUGAAGAGCCAGUGAUGUUGGUAGAACUGGUAUAUAAAUAACACCCUUGGCAGCACAGUCACGUAC [whbob_Ex_Theo_B_sa100] | 0.297 µM
19 | AAUAAUGGAGUGAUGUUCCAGUAAUGGGAUACCAGACAUGAAAAUGUCCCUUGGCAGCUCAAAGGUCUAGUGAUGUUAGAAAGAA [KL-SSTheo-A5 #Double Kiss] | 0.31 µM
20 | AGGAUGUAGUGAUGUUAUAUAAGAAGUAGACGAGGACCGGUACGGCCGCCACUCGAAACGGCUACUAGCGCGUUGCGAGGUGUGC [ExTryptoA.Cg] | 0.476 µM
21 | AGGUCACGAGGAAGGAGCGCCCUGACAGGUUGCUGCCGUGGGCAGUGAUGUUGCUCAGUCCGGCAGGUAGGUCGCCUCGUGACCU | 0.147 µM
22 | AGAGUUUUAUGAGGAUAUGAGAUAGUUAAUGAGUGAGUUAUAGUGUAGUUUGGUUAGUGAUGUUAUUUAGAAGGCGUGAGUGAUG [zzfzmullin] | 0.143 µM

same assay, conditions: Eterna round: R107; input ligand: theophylline 20 uM

Row | Sequence | apparent KD of K4 kissing-loop reporter
23 | GCGCGUCAUGGCGGCGGUGACUACGCCGAUACCAGCCGGGAAACCGGCCCUUGGCAGCGGCGCGCCGGAGUGAUGUUCCGACAGA [#2 Exclusion - Theophylline A Attempt #4 (HarryS)] | 0.37 µM
24 | GGUAGCAUGGCGGCCGCCACUAGAUCAGUGAUGUUGAUCCCGCCGUCUUACGGCGAGUCAGAGGCUAGGACCGGGCCAUGCUACC | 0.59 µM
25 | CAUACGCAUGGAGGAUAUGAGAUUUCUCAUAUUAUUUAAUAUUCUCAGUGAUGUUGAGAAUUUAACUCAGAAGGCCAUGUGUAUG [Ex FMN B 5] | 0.154 µM
26 | UGAUGUUUAGGUCACCCAGUGAUGUUGGAAGGAGCGUGCGAAAGCACAGGUAGGUCGCCAAUCUCCUUGUGACCUGAGCAUCUAA [#SwitchBubble 14 #K4Early] | 0.979 µM
27 | UUAUUAAUAACAGAUACCAGUCCAGAAUGAAUACUAUAGUGAUGUUAUAAUAAAGGGAAGGACCCUUGGCAGCUGUAAUAUAUUU [AstrosSSTheB#1] | 0.338 µM
28 | AAGUCUCGUUAAUUCGUGGUUUCGAUCGAUACCAGUAGCGAGAGUUACCCUUGGCAGCGAAAUGAGUGAUGUUCAUGAAAGAAGA [KL-XTheoA10] | 0.107 µM
29 | CAUACGCAUGGAGGAUAUGAGAUUUUUCAUAUUACUUUUUAUUCUCAGUGAUGUUGGGAUUUGUAAUCAGAAGGCCAUGUGUAUG [#10 K4 FMN B Exclusion] | 0.11 µM
30 | GGAAGGAAGGGAAGGAGCGCGCAGGCAGUGAUGUUGCCAAACAAAACAAACAAAACAAAAGCGCAGGUAGGUCGCCCGAAGGACG | 0.126 µM
31 | GACUACCGGGCGGCCGCCACUGGGCUCCGAGUGAUGUUCGGAAAGACUCAUACACUGCUGUCAGACAGGACCGGGCCAAGGCGCA [theeternabot_sameState_KL_Trp_B_5] | 0.201 µM
32 | GCGUUCAUGGCAGGAUAUAGGUAAAGGAGUGAUGUUCCUUAUGUUGCAUUUACUUAAUCCAACUCCCUAGAAGGGCCAUGAACGC | 0.139 µM
33 | CGCAGUGAUGUUGCGAGUAGCUACAGGGAAGGAGCGCGCUAGUGCGCAGGUAGGUCGCCCACGCAGUGAUGUUGCGUCAUAGGGU [Exclusion Arg A GF8] | 0.137 µM
34 | UCCUUAUCGCGGUCAUAAAGCCUAUAAAACAAGGAUAUCUCAUCAGAGAGAAGGUGUGAGUGAUGUUCAAAGGCCACCACGGGUU [theeternabot_sameState_KL_FMN_A_47] | 0.453 µM
35 | GGGCAUGUUAAAGGAUAUAGCAGGUGAUACAAGAAAGUGAGUGAUGUUUAUGUAGAUGAUGAUAUGUUAGAAGGUUAACAAAACC [abcdefghijklm] | 0.529 µM
36 | UGUCAUUGGUCGGCCGCCACUUCAUGUAGAGUGAUGUUCUGUAAGACGGAUCGAAAGAUCUGUCGAAGGACCGGGACCGAUGACU [FiskerMod 13 - Jieux - Same State - Tryptophan B] | 0.868 µM
37 | AUUUAAUGUAUAGAUUAUAUACAUAAUUCAGAGGAUAUGCAUAGAAGCAGAAGGCUGGUUGCAGUGAUGUUGCUUUUUUAAUUUA [JR_SSFMNA_Sub008] | 0.185 µM
38 | AAAAUAAUCCAGUGAUGUUGGUAUCCAGAUACCAGCCAGGAAACUGGCCCUUGGCAGCUGUGGACGUACAAAAUAAGUACGUCCU [#OpenEnded 10 #StaticStem #K4Early] | 0.611 µM

Row | Sequence | apparent KD of K4 kissing-loop reporter
39 | UGUAAUGAGUGAUGUUCAUGUAGUAAGGAUACCAGUAAUUCAAAAUGCCCUUGGCAGCUUAGUUCUAUCUAUAGUUGGGUAGUGG [Theophilline A V4 (+5U)] | 0.206 µM
40 | AAGGGCGAGGUAACGUGGAUAUCUCGUCGCAAGGAUAUCUGGAAACAGAGAAGGUGCUACAUUACCGGCAGUGAUGUUGCUGACC | 0.278 µM
41 | AAUGGAGGCUGAAGGAGCGCCGCCAGUGAUGUUGGGAGUUAGAUACCAGUGAUGUUGGGCCGGCAGGUAGGUCGCGGUUUUUAUU [Exclusion Arginine B Gf 16] | 0.153 µM
42 | GCAGUCAAUCGACCACGAAAGUGGAUGGAUACCAGCCCGAAACCGGGCCCUUGGCAGCCAGUGAUGUUGGAAGACUGCUUUAAAA [#SwitchBubble 14 #K4Late] | 0.216 µM
43 | UGACAUUGCUCAGAUACCAGACUUGAGGAACACCCAAGUGCCAAAUACGUACAAAUAAAAGUCCCUUGGCAGCUGAGCAAUGUCU [TheoBX 12] | 0.148 µM
44 | UCUGAAGGUGGAGGAUAUUGAUUGAAUCUUGGUCAGGAGUGAUGUUCCGGGAAGCCUUGGAUUCAUCGAGAAGGCCAAGGAUAGU [#10 K4 FMN B Same State] | 0.306 µM
45 | UAAAUUAAGCUUUGCUGAUUAAUAAGCGAUACCAGCAAAUAAUGAUGCCCUUGGCAGCGUUAUAAUCUAGUGAUGUUAGAUUAGU [Not much to say about this one] | 0.103 µM
46 | UAUAAUUCGGCGGCCGCCACUGACCAUAGCCUUCGAUGGCCAGUGAUGUUGGCCUCUGGCUCUAACAGGACCGGGCCGAAUUGCG [Aririmaus] | 0.277 µM
47 | UCGAUGGCCAGCGAUACCAGCCCAGUGAUGUUGGGCACAUGGUUGCGGGAAAUCCCAUUGGGCCCUUGGCAGCGCUUGCAUGGGU [Dizaisa] | 0.12 µM
48 | AAAUUUAAUAUAUUUAAUUAAUUAUGUGAUACCAGACAUUUAUAAGUCCCUUGGCAGCACUUUGCAGUGAUGUUGCAUAUAAUAA [JR_SSTheophyA_Sub013] | 0.157 µM
49 | UGAUUUAACUGAAGGAGCGGCAAUUGAUAAGUAAAUAUAGUGAUGUUAUAUAAGAUAGAGAGCCAGGUAGGUCGCAGAGGGAGGA [ExArgB.J] | 0.159 µM
50 | CCAGGUUGCCGCAACGACCUGGAUUUUAGGGAGGAUAUCCAGAGCAGGAGAAGGCCCAGUGAUGUUGGGCCUGUGGAGCCCAUAU [Ararensoza] | 0.12 µM
51 | CUCGAGUGAUGUUCGAUUAUUUAUACAGAUACCAGUGAAUUUUAACACCCUUGGCAGCUGGUUGUAUCUUUGUUUUUUACACAAG [JR_ExcTheophyA_Sub006] | 0.172 µM
52 | UAAUCCUAGUGAUCCUUAUCAAGUGGUGGGCGAGGACCGGUACGGCCGCCACUCGAAUAUGCAGUGAUGUUGUAAUCCGGAUAAU [Exclusion - Tryptophan A (Freestyle 9)] | 0.75 µM
53 | UGUCAUUGGUCGGCCGCCACUAGGACCGGGUUUUACCUAGUGAUGUUAGUAUAAACGGCCGCCACUAGGACCGGGACCGAUGACU [KL-SSTryp-B24 #DoubleAptamer] | 0.434 µM
54 | AAUCAAUACAGAAGGAGCGUGACAAUUACUAUUGAUUCAGGAGCUAGUGAUGUUAGCAUUUCACAGGUAGGUCGCUGUACAUUUA [JR_SSArginiB_Sub013] | 0.213 µM
